From publication PMC4777398 (PLoS ONE, 2016)

Molecular target: pre-dimerized IMPα2/IMPβ1 heterodimer (GST-fused mouse proteins) (mouse, UniProt P52293 1-529; P70168 1-876)
Assay: AlphaScreen or HTRF
Settings: both partners purified

B1: His6-GFP-fused wt P-CTD (rabies virus P-protein C-terminal domain) (domain or fragment)
chain: VAQVAPGPPALEWSATNEEDDLSVEAEIAHQIAESFSKKYKFPSRSSGIFLYNFEQLKMNLDDIVKEAKNVPGVTRLAHDGSKIPLRCVLGWVALANSKKFQLLVEADKLSKIMQDDLNRYTSC
B1 was tested, and the Kd was 1.7 ± 0.6 nM.
